Data reported in US20070148773.

Columns and labels:
Assay in all cases: cell_activity
[1] = target: Int-h (mutant lambda integrase) (Bacteriophage lambda) (UniProt P03700); details: HeLa 48 h
[2] = target: Int-h/218 (double mutant lambda integrase) (Bacteriophage lambda) (UniProt P03700); details: HeLa 48 h
[3] = target: T1, Int (wild-type lambda integrase) (Bacteriophage lambda) (UniProt P03700); details: attP x attP intermolecular, HeLa 48 h; attP x attB 0.81%
T1 sequence: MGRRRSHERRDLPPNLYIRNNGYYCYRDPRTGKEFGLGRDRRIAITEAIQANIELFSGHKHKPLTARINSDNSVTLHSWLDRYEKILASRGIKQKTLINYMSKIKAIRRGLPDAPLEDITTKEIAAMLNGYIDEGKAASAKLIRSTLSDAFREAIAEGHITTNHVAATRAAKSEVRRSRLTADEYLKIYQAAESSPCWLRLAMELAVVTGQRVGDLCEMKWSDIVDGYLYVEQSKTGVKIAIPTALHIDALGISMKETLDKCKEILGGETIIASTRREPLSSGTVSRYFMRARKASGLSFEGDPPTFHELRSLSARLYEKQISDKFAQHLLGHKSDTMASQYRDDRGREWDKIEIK

CTGCTTTTTTATACTAACTTG (double strand) [attB]
activity ([1]; attB x attB intermolecular): 1.15 % GFP+ cells
activity ([2]; attB x attB intermolecular): 4.01 % GFP+ cells

TCTGTTACAGGTCACTAATACCATCTAAGTAGTTGATTCATAGTGACTGCATATGTTGTGTTTTACAGTATTATGTAGTCTGTTTTTTATGCAAAATCTAATTTAATATATTGATATTTATATCATTTTACGTTTCTCGTTCAGCTTTTTTATACTAAGTTGGCATTATAAAAAAGCATTGCTTATCAATTTGTTGCAACGAACAGGTCACTATCAGTCAAAATAAAATCATTATTTGATTTC (double strand) [attP]
activity [3]: 1.24 % GFP+ cells
activity ([1]; attP x attP intermolecular, attP x attB 9.90%): 8.07 % GFP+ cells
activity ([2]; attP x attP intermolecular, attP x attB 16.45%): 17.6 % GFP+ cells
